Experiment: soluble on expression in E. coli; label from the status in PepcDB or PDB records

Row | Sequence | soluble on expression in E. coli
1 | YDTAYGGFGRGMKFPMHHALLLLARASMAGDRRALNMLTGTLDHMLFSGVHDLVEGGLHRYSVTRDWRLPHYEKMLYDQAWIIQVLAEAYAASGDRLYLDFAVSTLEFAMSWLWTGRGFASSVDADTGEGEGAYYT | not soluble
2 | MTDNSQFHAASALVQAAHTVSVVGHLRPDADAIGSVAATVAALQQLGKDAVGAIGQLDSMPENLYTIPGASNIKFGDSLPESDLIIVVDCGSIERTGAFESIIVNNPDKVLVVDHHATNPGFGAVNLIDVEAESTTTILYDWFDAMSVQITPDIAHGLYAGLLTDTGCFRWGRPVMHDMAKELMEFGLDIRAISSALLDQTSVDDLRLVGQIVSRIELREAGPYTLAVLVADFDTINGRSRAVVEGLIEMVRAVEGADFGAVFKEYERGVYTVSLRSSNLSVASLAVHLGGGGHIPAAGYTARGTEIEALDTLIEATVTLGESLRSSAHVDVLEHHHHHH | soluble
3 | GPGSMMIDGAINPREWFNWHPKEYQPWYFDRHKFIYEQGQYAAYNHLLCHQAYLKDIEHLTRYPEPRTFVIDCRMSPAKMHRWVPHSMWLPRDEVEYALQLTNDEFQEMYGFIKPAKDDDVILISHNGLASEQAGWEWRKQYYQHVYNYRGGTNELFGEDYQDFILKDRLDPWKGPYPQKSIFVDKWSKRKVLTRTGPFDRQYEMQDFALPDLELERPRHSEDGPRQNMPYGLQ | not soluble
4 | MTTDIRPLLVELFTEELPPKALQKLGQAFAEGVRATLARHHLLADGCAVEPFATPRRLAVRLSAVLAQAPEQAYAEKLMPVKVGLDANGQPTAALAKKLAAKGLEGLDPATLERESDGKQEYLVARGTAAGAQLAVGLQEGLDAAIDGLPIPKVMRYQLADGQTTVKFVRPAHGLVALFGADIVPIAALGLQAGRATQGHRFQSNGAIELATAQGYEADLAERGRVIASFEARRAEISRLLDEHAQRLGATLGDDPEVTALLDEVTALVEHPTVYVGQFEEQFLQVPQECLILTMRLNQKYFPLFDPASGKLTHRFLIVSNMQVADPANIVEGNQRVVRPRLADAQFFFETDRKTPLAARVEQLGSIVYHNKLSTQLERVERVRAIARGIATALGGDAAHCDRAALLAKADLGSNMVGEFPELQGIMGAYYAQGDGEPADVVTALRTQYRNRYDAPVDAATLTAATLFIAERIETLVGIWSIGLAPTGERDPFGLRRAALGLISAFEQLAAGGWLKVSEDGPLSLDGLLALAAQAFPDGKIGADTLAEVRAFIYERYRNQLIGEHDRNAVEAVIALAPPL | not soluble
5 | MWDERFSQSEYVYGTEPNDFLVSVANQIPQGKILCLAEGEGRNACFLASLGYEVTAVDQSSVGLAKAKQLAQEKGVKITTVQSNLADFDIVADAWEGIVSIFCHLPSSLRQQLYPKVYQGLKPGGVFILEGFAPEQLQYNTGGPKDLDLLPKLETLQSELPSLNWLIANNLERNLDEGAYHQGKAALIQLLGQKLEHHHHHH | soluble
6 | MLHIVKHLEKLPLLSAYLLDGDVVLLTENAVYAAAVHSPYQASINDQNLWLVLYEDLHARGWLEKCDPRISVVTMSDFVDLTVTHDKSITW | not soluble
7 | MGSDKIHHHHHHMNEAELLDPPLETPPRPAVKVRGEPLAELPQDLYIPPDALEVFLEAFEGPLDLLLYLIRKQNLDVLDIPMAALTQQYMAYVEAARATRLELAAEYLLMAAVLIDIKSRMLLPRREQADEPGEADDPRAELVRRLLEYEQMKRAGQQLDALPQAGRDFDTVSVFLPAAAKRLPSVHAEELAAAWLAILSRAKNRTHHRIGRQELSIREHMSRILKRLTPGEFMEFKELFPEASTVHELVVTFLAVLELSKETLLDVTQAEPFAPIYVKLHESAAE | not soluble
8 | MKKHVMLVKPFSLEDEKDSENTPPNLIQRILSLFKNVRPGSDLTNFQLPPQMNLARSQLQCYGEIVYSFDGHDLLGECSRRDKPIERMKAMVTWYISTLRPLIFGLAPYNPVIGETHHVSNGHINVLAEQISHHPPVSALHATHEKENVDVLLCQYFTPKFRGAYVDVEVKGKRVVKLLNHKETYEMNQPKLLMTFLPAMGAHWAGKIVIKCPETGLGAELQLLSDSFLSRFTGNNKRAIKGKIFESSSRKQLYEISGHWDRTVTAKNTKTGQLEVIYKASENIAKLKTPIVENLQEVSESESAVVWGEVSEGIVTNNWEKAREAKRDVEEKQRESLRKRKASGQSWIPKHFSVARTGKDWDCVPLQPTVPRAPIVVPL | soluble
9 | MKVVAFNGSPRKEGNTASLIKHVLAELDKEGIETEIVQIGGKSVHGCTACSKCFENRDRRCVIDNDIVNECIEKMLEADGIILASPTYFADLTPELKALIDRAGFVAKANSEMFRYKVGAAVVAVRRAGSIHVFDSINHFFTISQMIIPGSSYWNMGIGRAEGDVEKDDEGIRTMQILGQNMAWLLKKLNELEHHHHHH | not soluble
10 | MAHHHHHHMSSASIVALSLSLSFSLGLLRSLGSARHIRYGHPHTNTSAYGGRHPRMQVMAAAARTYRHIVARELSTNFRAVASIVEAPFPTVLHPKAILVKNKYLGVNASDINFTAGIYQPDVRPPFACGFEAVGEVVDVGSGVKDLKAGAAVVTQSYGAFAEYQVVARRHAKPIPRVAREYLPLDLSATTASIALEHVLKPQPGERAVVTAAAGGTGQFAVQLLKHVYGCSVVGTCSSPSKEVFLTNTLKCDGVVNYKAEGGDTAAAFLRCYPRGVNIAYESVGGDLLEAVIQSLAPRGRILSLGCVSTYQCGSIEAACPSRKPLPLQLLAKSASLSTFFLPHFAKYGQLHFDRLCALHEQGLVQCCIDPTTFEGLEGVYDAIDWMFEQKNCGKVMVEL | not soluble
11 | MSEMSVIIEFSIVPMGEVSISKYVAEIIKLVRDRGVKYQLTPMGTILEVNSIEEGLSIIRDAHELMFKLGSKRVLTTIRIDERRDKARTMEDKVKSVMEKVESVRE | soluble
12 | MGSDKIHHHHHHMHLLFPEVCILCQKPLGEGEEHICAGCFNDFNPFPSVLAGGAALKSTVRAHFGEKAVPAAAWCLYPYRSRGSLHEAMHAMKYGGLFPLGELFGKRLGELICQGGVPVGFDAIVPVPLHHLKRIERTYNQAEALARGMAGLIGLPVATRSLERCVYTGTQTGLGLEARRENMAGAFRPGRERCPARVLLVDDVLTTGATMVSAAKVLKAAGAVEVAFATVALTEKE | not soluble
13 | MQILKVIGLLMEYPDELLWECKEDALALIRRDAPMLTDFTHNLLNAPLLDKQAEWCEVFDRGRTTSLLLFEHVHAESRDRGQAMVDLLAEYEKVGLQLDCRELPDYLPLYLEYLSVLPDDQAKEGLLNVAPILALLGGRLKQREAPWYALFDALLQLAGSSLSSDSVTKQVNSEERDDTRQALDAVWEEEQVKFIEDNATACDSSPLNQYQRRFSQDVAPQYVDISAGGGK | not soluble
14 | MSAKAISEQTGKELLYKFICTTSAIQNRFKYARVTPDTDWARLLQDHPWLLSQNLVVKPDQLIKRRGKLGLVGVNLTLDGVKSWLKPRLGQEATVGKATGFLKNFLIEPFVPHSQAEEFYVCIYATREGDYVLFHHEGGVDVGDVDAKAQKLLVGVDEKLNPEDIKKHLLVHAPEDKKEILASFISGLFNFYEDLYFTYLEINPLVVTKDGVYVLDLAAKVDATADYICKVKWGDIEFPPPFGREAYPEEAYIADLDAKSGASLKLTLLNPKGRIWTMVAGGGASVVYSDTICDLGGVNELANYGEYSGAPSEQQTYDYAKTILSLMTREKHPDGKILIIGGSIANFTNVAATFKGIVRAIRDYQGPLKEHEVTIFVRRGGPNYQEGLRVMGEVGKTTGIPIHVFGTETHMTAIVGMALGHRPIP | soluble

From the DeepSol protein solubility set
